US20160340743

Molecular target: GSK-3 fusion protein (kinase substrate, Nonradioactive AKT Kinase Assay Kit, Cell signaling 9840)

B1: BCAM-AKT2-FLAG (cloned from patient S4, expressed in OVCAR8 cells) (protein)
chain: EVRLSVPPLVEVMRGKSVILDYTPTGTHDHYMLEWFLTDRSGARPRLASAEMQGSELQVTMHDTRGRSPPYQLDSQGRLVLAEAQVGDERDYVCVVRAGAAGTAEATARLNVFAKPEATEVSPNKGTLSVMEDSAQEIATCNSRNGNPAPKITWYRNGQRLEVPVEMNPEGYMTSRTVREASGLLSLTSTLYLRLRKDDRDASFHCAAHYSLPEGRHGRLDSPTFHLTLHYPTEHVQFWVGSPSTPAGWVREGDTVQLLCRGDGSPSPEYTLFRLQDEQEEVLNVNLEGYLTLEGVTRGQSGTYGCRVEDYDAADDVQLSKTLELRVAYLDPLELNEGKVLSLPLNSSAVVNCSVHGLPTPALRWTKDSTPLGDGPMLSLSSITFDSNGTYVCEASLPTVPVLSRTQNFTLLVQGSPGLKTAEIEPKADGSWREGDEVTLICSARGHPDPKLSWSQLGGSPAEPIPGRQGWVSSSLTLKVTSALSRDGISCEASNPHGNKRHVFHFGTVSPQTSQAGVAVMAVAVSVGLLLLVVAVFYCVRRKGGPCCRQRREKGAPEEWMRAIQMVANSLKQRAPGEDPMDYKCGSPSDSSTTEEMEVAVSKARAKVTMNDFDYLKLLGKGTFGKVILVREKATGRYYAMKILRKEVIIAKDEVAHTVTESRVLQNTRHPFLTALKYAFQTHDRLCFVMEYANGGELFFHLSRERVFTEERARFYGAEIVSALEYLHSRDVVYRDIKLENLMLDKDGHIKITDFGLCKEGISDGATMKTFCGTPEYLAPEVLEDNDYGRAVDWWGLGVVMYEMMCGRLPFYNQDHERLFELILMEEIRFPRTLSPEAKSLLAGLLKKDPKQRLGGGPSDAKEVMEHRFFLSINWQDVVQKKLLPPFKPQVTSEVDTRYFDDEFTAQSITITPPDRYDSLGLLELDQRTHFPQFSYSASIRE
Question: For B1, which “phosphorylation of GSK-3 (in vitro kinase assay, western blot with anti-phospho-GSK-3)” value is on record?
Answer: The value was “incubation with immunoprecipitated BCAM-AKT2 led to efficient phosphorylation of GSK-3”.
